Results taken from publication PMC5858577.

Target: VEGF (human recombinant VEGF165 in the cell experiments) (human, UniProt P15692-4 27-191)
Test: fluorescence recovery by displacement from gold nanorod

B1: gapmer aptamer probe (XNA)
DNA: CAATTGGGCCCGTCCGTATGGTGGGT
modifications: LNA monomers at both ends, DNA in the middle; exact positions only in Fig. 1b/Supplementary Table 1
- binding result: binds
